B1: SVG03 (VHH, not shown: large carriers)
VHH: QVQLQESGGGLVQAGGSLRLSCAASGRTFSNYVMGWFRQAPGKEREFVSAISWNGVSTFYADSVKGRFTISRDNAKNTVYLQMNSLKPEDTAVYYCAADERFVVRYNYWGQGTQVTVSS
B2: SVG23 (VHH, not shown: large carriers)
VHH: QVQLQESGGGLVQAGGSLRLSCAASGRAFGSYTMNWFRQAPGKERDFVAGIMSSGMNTWYADSVKGRFTISRDNAKNTVYLQMNSLKPEDTAVYYCASRPRSTMTSGRYLYDYWGQGTQVTVSS
B3: SVG24 (VHH, not shown: large carriers)
VHH: QVQLQQSGGGLVQAGGSLRLSCAASGRTFSTYNIAWFRQAPGKEREFVTAITWGSGNTYYADSVKGRFTISRDNAKNTVFLQMNSLKPDDTAVYYCAARRSLGPTMAFAYEYWGQGTQVTVSS
B4: SVG18 (VHH, not shown: large carriers)
VHH: QVQLQQSGGGLVQPGGSLRLSCAASGFTFSSYAMSWVRQAPGKGLEWVSAINSGGDIISYADSVKGRFTISRDNAKNTLYLQMNSLKPEDTAVYYCAKSPIVRTYGGYDYWGQGTQVTVSS
B5: SVG06 (VHH)
VHH: QVQLQESGGALVQPGGSLRLSCAASGFPFSAYDMTWVRQAPGQGLEWVSTIHKSGGITTYADSVKGRFTISRDNAKNTLYLQMNNLESEDTAVYYCAKALRAHNSDYVGRNALGSWGEGTLVTVSS
B6: SVG19 (VHH, not shown: large carriers)
VHH: QVQLQQSGGGLVQPGGSLRLSCAASGFTFSSYAMSWVRQAPGKGLEWVSAINSGGGSTSYADSVKGRFTISRDNAKNTLYLQMNSLKPEDTAVYYCAKDFDPWGVGTGGYDYWGQGTQVTVSS
B7: SVG13 (VHH)
VHH: QVQLQESGGGLVQPGGSLRLSCEASGFTFDDYGMSWVRQAPGKGLEWVSSLTPNGGSTYYADSVKGRFTISRDNAKNTLYLQMNSLKPEDTALYYCAKNSYYGAMDYWGKGTLVTVSS
B8: SVG07 (VHH, not shown: large carriers)
VHH: QVQLQESGPGLVKPSQTLSLTCTVSGGSITTTAYAWSWIRQPPGKGLEWMGAIRFDGTTDYSPSLKSRISISRDTSNNQFSLRMSSVTPEDTAVYYCARYGVVSDHGGLDYWGQGTQVTVSS
B9: SVA12 (VHH)
VHH: QVQLQESGGRLVQAEDSLRLSCAASGRTFVSYDMGWFRQAPGKEREFVAAINWRGYTTDYVDSVKGRFFISRDIAKSTVYLQMNNLKPEDTAVYYCAARQMSGSSRYSPPGRVGYDFWGQGTQVTVSS
B10: SVA04 (VHH, not shown: large carriers)
VHH: QVQLQQSGGGLVQAGGSLRLACAASGRTLSSYVMGWFRQAPGKEREFVAAISWSGGSTYYADSVKGRFTISRDNAKNTVYLQMNSLKPEDTAVYYCAATLRGSNRYYSGRVYDYWGQGTQVTVSS

molecular target: bovine IgG; test: ELISA, coated antigen, E. coli supernatant

Going from B1 to B2, the absorbance at 450 nm rises from 0.061 A450 to 0.062 A450.

Compared with B3, B4 is higher in absorbance at 450 nm: 0.075 A450 for the first, 0.124 A450 for the second.

First: B5
Second: B6
The absorbance at 450 nm of the first is lower: 0.172 A450 for the first, 0.453 A450 for the second.

First: B7
Second: B8
The absorbance at 450 nm of the first is higher: 0.272 A450 for the first, 0.121 A450 for the second.

molecular target: dog IgG Fab fragment; test: ELISA, coated antigen, E. coli supernatant

First: B1
Second: B2
The absorbance at 450 nm of the first is lower: 0.054 A450 for the first, 0.061 A450 for the second.

Going from B3 to B4, the absorbance at 450 nm rises from 0.074 A450 to 1.36 A450.

Compared with B5, B6 is higher in absorbance at 450 nm: 0.178 A450 for the first, 1.22 A450 for the second.

First: B7
Second: B8
The absorbance at 450 nm of the first is higher: 0.59 A450 for the first, 0.454 A450 for the second.

molecular target: dog IgG; test: ELISA, coated antigen, E. coli supernatant

First: B1
Second: B2
The absorbance at 450 nm of the first is lower: 0.07 A450 for the first, 1.74 A450 for the second.

Going from B3 to B4, the absorbance at 450 nm falls from 1.74 A450 to 1 A450.

Compared with B5, B6 is higher in absorbance at 450 nm: 0.277 A450 for the first, 1.02 A450 for the second.

Going from B7 to B8, the absorbance at 450 nm falls from 0.693 A450 to 0.479 A450.

molecular target: guinea pig IgG; test: ELISA, coated antigen, E. coli supernatant

Going from B1 to B2, the absorbance at 450 nm rises from 0.063 A450 to 0.068 A450.

First: B3
Second: B4
The absorbance at 450 nm of the first is lower: 0.068 A450 for the first, 0.174 A450 for the second.

First: B5
Second: B6
The absorbance at 450 nm of the first is lower: 0.204 A450 for the first, 0.435 A450 for the second.

Going from B7 to B8, the absorbance at 450 nm falls from 0.579 A450 to 0.249 A450.

molecular target: horse IgG Fab fragment; test: ELISA, coated antigen, E. coli supernatant

Going from B1 to B2, the absorbance at 450 nm falls from 0.057 A450 to 0.056 A450.

First: B3
Second: B4
The absorbance at 450 nm of the first is lower: 0.06 A450 for the first, 0.32 A450 for the second.

First: B5
Second: B6
The absorbance at 450 nm of the first is lower: 0.089 A450 for the first, 0.472 A450 for the second.

Compared with B7, B8 is lower in absorbance at 450 nm: 0.222 A450 for the first, 0.152 A450 for the second.

molecular target: horse IgG Fc fragment; test: ELISA, coated antigen, E. coli supernatant

Going from B1 to B2, the absorbance at 450 nm falls from 0.476 A450 to 0.072 A450.

First: B3
Second: B4
The absorbance at 450 nm of the first is higher: 1.67 A450 for the first, 0.072 A450 for the second.

Compared with B5, B6 is higher in absorbance at 450 nm: 0.073 A450 for the first, 0.079 A450 for the second.

First: B7
Second: B8
The absorbance at 450 nm of the first is lower: 0.097 A450 for the first, 0.099 A450 for the second.

molecular target: human IgG; test: ELISA, coated antigen, E. coli supernatant

Going from B1 to B2, the absorbance at 450 nm falls from 0.076 A450 to 0.073 A450.

Going from B3 to B4, the absorbance at 450 nm rises from 0.084 A450 to 0.096 A450.

Going from B5 to B6, the absorbance at 450 nm falls from 0.365 A450 to 0.309 A450.

Going from B7 to B8, the absorbance at 450 nm falls from 0.524 A450 to 0.17 A450.

molecular target: swine IgG; test: ELISA, coated antigen, E. coli supernatant

Going from B1 to B2, the absorbance at 450 nm rises from 0.075 A450 to 0.092 A450.

Going from B3 to B4, the absorbance at 450 nm falls from 0.341 A450 to 0.097 A450.

Going from B5 to B6, the absorbance at 450 nm rises from 0.131 A450 to 0.146 A450.

First: B7
Second: B8
The absorbance at 450 nm of the first is higher: 0.195 A450 for the first, 0.103 A450 for the second.

molecular target: dog serum albumin (dog) (UniProt P49822); test: ELISA, coated albumin, E. coli supernatant
Sequence (P49822 25-608): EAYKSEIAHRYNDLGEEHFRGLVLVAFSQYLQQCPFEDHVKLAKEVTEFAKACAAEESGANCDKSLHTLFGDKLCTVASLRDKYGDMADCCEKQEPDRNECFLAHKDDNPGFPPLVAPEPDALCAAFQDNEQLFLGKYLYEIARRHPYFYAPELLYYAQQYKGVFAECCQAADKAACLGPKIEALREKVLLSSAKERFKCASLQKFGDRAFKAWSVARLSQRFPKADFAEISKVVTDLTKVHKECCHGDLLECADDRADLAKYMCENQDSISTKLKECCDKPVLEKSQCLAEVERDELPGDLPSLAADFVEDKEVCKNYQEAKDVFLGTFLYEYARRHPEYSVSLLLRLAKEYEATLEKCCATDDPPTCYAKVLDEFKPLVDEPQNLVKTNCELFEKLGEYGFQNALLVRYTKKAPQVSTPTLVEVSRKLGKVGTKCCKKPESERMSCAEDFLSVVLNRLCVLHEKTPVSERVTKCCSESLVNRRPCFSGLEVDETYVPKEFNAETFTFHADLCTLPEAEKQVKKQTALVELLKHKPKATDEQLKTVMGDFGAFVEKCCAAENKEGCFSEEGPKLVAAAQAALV

Going from B9 to B10, the absorbance at 450 nm falls from 1.77 A450 to 1.53 A450.

molecular target: horse serum albumin (horse) (UniProt P35747); test: ELISA, coated albumin, E. coli supernatant
Sequence (P35747 25-607): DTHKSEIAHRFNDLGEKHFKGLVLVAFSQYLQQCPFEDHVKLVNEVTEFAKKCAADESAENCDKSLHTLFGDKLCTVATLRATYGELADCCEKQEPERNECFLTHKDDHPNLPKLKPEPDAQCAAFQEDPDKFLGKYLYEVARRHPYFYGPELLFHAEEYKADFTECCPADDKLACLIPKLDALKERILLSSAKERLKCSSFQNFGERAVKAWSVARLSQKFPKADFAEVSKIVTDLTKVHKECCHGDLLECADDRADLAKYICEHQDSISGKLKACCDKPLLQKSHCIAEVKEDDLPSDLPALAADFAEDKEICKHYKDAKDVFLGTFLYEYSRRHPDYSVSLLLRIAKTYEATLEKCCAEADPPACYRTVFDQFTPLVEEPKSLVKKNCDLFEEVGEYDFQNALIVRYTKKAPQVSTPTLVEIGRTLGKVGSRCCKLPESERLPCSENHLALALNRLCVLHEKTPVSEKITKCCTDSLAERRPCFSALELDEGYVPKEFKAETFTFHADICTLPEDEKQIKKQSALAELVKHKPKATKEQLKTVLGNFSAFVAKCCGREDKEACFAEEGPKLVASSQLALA

For B9, the absorbance at 450 nm was 2 A450.

molecular target: human serum albumin (human) (UniProt P02768); test: ELISA, coated albumin, E. coli supernatant

With B9 the absorbance at 450 nm was 0.057 A450.

molecular target: horse IgG; test: ELISA, coated antigen, E. coli supernatant (no SDA 0.255, 0.261)

Going from B1 to B2, the absorbance at 450 nm falls from 1.1 A450 to 0.26 A450.

First: B3
Second: B4
The absorbance at 450 nm of the first is higher: 0.765 A450 for the first, 0.478 A450 for the second.

Compared with B5, B6 is higher in absorbance at 450 nm: 0.325 A450 for the first, 0.681 A450 for the second.

Going from B7 to B8, the absorbance at 450 nm falls from 0.436 A450 to 0.401 A450.

Source: patent US20240376185A1
